Assay results published in patent US20170096485A1 (Hoffmann-La Roche, published 2017).
Changes are numbered by the printed parent chain. Where two headings read alike, the source gives them in different places.

Legend:
human mesothelin [1] = target: T1, human mesothelin (human, UniProt Q13421 296-580); test: cell-based or functional assay
human CD3 = target: T2, human CD3 (human, UniProt P07766 23-207); test: flow cytometry on Jurkat cells, 3.8 pM-300 nM
T2 construct: also called CD3 epsilon
Description: (§1) Briefly, Jurkat suspension cells were harvested, counted and checked for viability. Adherent AsPC-1 cells were harvested using Cell Dissociation Buffer (Gibco, #13151014), counted, checked for viability, and re-suspended at 0.9×10⁶ cells/ml in FACS buffer (100 μl PBS 0.1% BSA). […] Cells were re-incubated for further 30 min at 4° C. with the 1:100 pre-diluted AlexaFluor 647—F(ab′)₂ Fragment Goat Anti-Human IgG, Fey fragment specific secondary antibody (Jackson Immuno Research Lab, […] #109-096-008) and thereafter washed twice with cold PBS 0.1% BSA.
(§2) The stained cells were re-suspended in 100 μl 2% paraformaldehyde-containing FACS Buffer and incubated for 30 min at room temperature to fix the staining. Finally cells were centrifuged for 4 min at 350×g and 4° C., the supernatants were discarded and the cell pellets re-suspended in 200 μl FACS Buffer. Staining was analyzed by FACS using a FACS Canto II (Software FACS Diva). Binding curves and EC50 values were obtained using GraphPadPrism6 (FIG. 8A, binding to Jurkat cells, FIG. 8B binding to AsPC-1 cells).

human mesothelin [2] = target: T1, human mesothelin; test: cell-based or functional assay; remark: listed apart in the source
human mesothelin [3] = target: T1, human mesothelin; test: flow cytometry on CHO cells transiently transfected to express human MSLN
cynomolgus mesothelin = target: T3, cynomolgus mesothelin (cynomolgus); test: flow cytometry on CHO cells transiently transfected to express cynomolgus MSLN
T3 construct: whole, on cells; also called cynomolgus MSLN

human mesothelin [4] = target: T1, human mesothelin; test: cell-based or functional assay; remark: listed apart in the source
human mesothelin [5] = target: T1, human mesothelin; test: cell-based or functional assay; remark: listed apart in the source
human mesothelin [6] = target: T1, human mesothelin; test: cell-based or functional assay; remark: listed apart in the source
human mesothelin [7] = target: T1, human mesothelin; test: flow cytometry on MSLN-expressing AsPC-1 cells, 3.8 pM-300 nM, fit with GraphPad Prism6
Description: as §1, §2

human mesothelin [8] = target: T1, human mesothelin; test: cell-based or functional assay; remark: listed apart in the source
human mesothelin [9] = target: T1, human mesothelin; test: cell-based or functional assay; remark: listed apart in the source

T1 sequence (Q13421 296-588): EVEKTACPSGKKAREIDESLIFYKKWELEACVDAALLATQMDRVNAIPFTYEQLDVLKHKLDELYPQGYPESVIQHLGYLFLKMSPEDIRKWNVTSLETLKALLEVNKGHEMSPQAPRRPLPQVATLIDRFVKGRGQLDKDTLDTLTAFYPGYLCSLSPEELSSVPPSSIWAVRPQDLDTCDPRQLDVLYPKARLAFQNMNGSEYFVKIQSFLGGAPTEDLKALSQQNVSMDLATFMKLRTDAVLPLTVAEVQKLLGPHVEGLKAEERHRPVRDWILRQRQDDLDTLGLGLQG
T2 sequence (P07766 23-207 limits assumed): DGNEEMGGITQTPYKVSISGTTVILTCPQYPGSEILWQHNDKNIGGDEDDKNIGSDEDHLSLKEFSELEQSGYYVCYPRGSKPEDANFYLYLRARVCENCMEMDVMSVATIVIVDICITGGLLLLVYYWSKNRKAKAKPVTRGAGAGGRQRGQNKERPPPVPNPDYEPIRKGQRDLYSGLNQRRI

B1: MSLN TCB molecule A: '2+1 IgG CrossFab, inverted' with charge modifications (VH/VL exchange in CD3 binder, charge modification in mesothelin binders) (bispecific antibody)
heavy 1: QVQLVQSGAEVKKPGASVKVSCKASGYSFTGYTMNWVRQAPGQGLEWMGLITPYNGASSYNQKFRGKATMTVDTSTSTVYMELSSLRSEDTAVYYCARGGYDGRGFDYWGQGTLVTVSSASTKGPSVFPLAPSSKSTSGGTAALGCLVEDYFPEPVTVSWNSGALTSGVHTFPAVLQSSGLYSLSSVVTVPSSSLGTQTYICNVNHKPSNTKVDEKVEPKSCDKTHTCPPCPAPEAAGGPSVFLFPPKPKDTLMISRTPEVTCVVVDVSHEDPEVKFNWYVDGVEVHNAKTKPREEQYNSTYRVVSVLTVLHQDWLNGKEYKCKVSNKALGAPIEKTISKAKGQPREPQVCTLPPSRDELTKNQVSLSCAVKGFYPSDIAVEWESNGQPENNYKTTPPVLDSDGSFFLVSKLTVDKSRWQQGNVFSCSVMHEALHNHYTQKSLSLSP
heavy 2: not shown
light 1: EVQLLESGGGLVQPGGSLRLSCAASGFTFSTYAMNWVRQAPGKGLEWVSRIRSKYNNYATYYADSVKGRFTISRDDSKNTLYLQMNSLRAEDTAVYYCVRHGNFGNSYVSWFAYWGQGTLVTVSSASVAAPSVFIFPPSDEQLKSGTASVVCLLNNFYPREAKVQWKVDNALQSGNSQESVTEQDSKDSTYSLSSTLTLSKADYEKHKVYACEVTHQGLSSPVTKSFNRGEC
light 2: DIQMTQSPSSLSASVGDRVTITCSASSSVSYMHWYQQKSGKAPKLLIYDTSKLASGVPSRFSGSGSGTDFTLTISSLQPEDFATYYCQQWSKHPLTFGQGTKLEIKRTVAAPSVFIFPPSDRKLKSGTASVVCLLNNFYPREAKVQWKVDNALQSGNSQESVTEQDSKDSTYSLSSTLTLSKADYEKHKVYACEVTHQGLSSPVTKSFNRGEC
Human mesothelin [1]
  EC50 of CD69 up-regulation on CD4 T cells (% CD4+CD69+), AsPC-1 target cells (FACS): 0.513 nM
  EC50 of CD69 up-regulation on CD4 T cells (% CD4+CD69+), BxPC-3 target cells (FACS): 0.0598 nM
  EC50 of CD69 up-regulation on CD4 T cells (% CD4+CD69+), NCI-H596 target cells (FACS): 0.0774 nM
  EC50 of CD69 up-regulation on CD8 T cells (% CD8+CD69+), AsPC-1 target cells (FACS): 0.546 nM
  EC50 of CD69 up-regulation on CD8 T cells (% CD8+CD69+), BxPC-3 target cells (FACS): ~0.118 nM
  EC50 of CD69 up-regulation on CD8 T cells (% CD8+CD69+), NCI-H596 target cells (FACS): 0.145 nM
Human CD3
  binding result: binds
Human mesothelin [2]
  EC50 of T-cell mediated lysis of AsPC-1 cells, 48 h (LDH release): ~0.498 nM
  EC50 of T-cell mediated lysis of BxPC-3 cells, 48 h (LDH release): 0.258 nM
  EC50 of T-cell mediated lysis of NCI-H596 cells, 48 h (LDH release): 0.313 nM
Human mesothelin [3]
  EC50: 7.76 nM
Cynomolgus mesothelin
  EC50: 5.5 nM
Human mesothelin [4]
  EC50 of T-cell mediated lysis of AsPC-1 cells, 48 h (LDH release): 0.146 nM
  EC50 of T-cell mediated lysis of BxPC-3 cells, 48 h (LDH release): 0.0577 nM
  EC50 of T-cell mediated lysis of NCI-H596 cells, 48 h (LDH release): 0.149 nM
Human mesothelin [5]
  EC50 of CD69 up-regulation on CD4 T cells (% CD4+CD69+), AsPC-1 target cells, 72 h (FACS): 0.131 nM
  EC50 of CD69 up-regulation on CD4 T cells (% CD4+CD69+), BxPC-3 target cells, 72 h (FACS): 0.00752 nM
  EC50 of CD69 up-regulation on CD4 T cells (% CD4+CD69+), NCI-H596 target cells, 72 h (FACS): 0.0352 nM
  EC50 of CD69 up-regulation on CD8 T cells (% CD8+CD69+), AsPC-1 target cells, 72 h (FACS): 0.0936 nM
  EC50 of CD69 up-regulation on CD8 T cells (% CD8+CD69+), BxPC-3 target cells, 72 h (FACS): 0.0307 nM
  EC50 of CD69 up-regulation on CD8 T cells (% CD8+CD69+), NCI-H596 target cells, 72 h (FACS): 0.0476 nM
Human mesothelin [6]
  EC50 of T-cell mediated killing of AsPC-1 cells, 24 h (LDH release, human PBMCs, E:T 10:1): 0.308 nM
  EC50 of T-cell mediated killing of AsPC-1 cells, 48 h (LDH release, human PBMCs, E:T 10:1): 0.1 nM
  EC50 of T-cell mediated killing of BxPC-3 cells, 24 h (LDH release, human PBMCs, E:T 10:1): 0.0552 nM
  EC50 of T-cell mediated killing of BxPC-3 cells, 48 h (LDH release, human PBMCs, E:T 10:1): 0.0195 nM
  EC50 of T-cell mediated killing of NCI-H596 cells, 24 h (LDH release, human PBMCs, E:T 10:1): 0.1 nM
  EC50 of T-cell mediated killing of NCI-H596 cells, 48 h (LDH release, human PBMCs, E:T 10:1): 0.143 nM
Human mesothelin [7]
  EC50: 1.44 nM
Human mesothelin [8]
  EC50 of CD69 up-regulation on CD4 T cells (% CD4+CD69+), AsPC-1 target cells, 48 h (FACS): 0.174 nM
  EC50 of CD69 up-regulation on CD4 T cells (% CD4+CD69+), BxPC-3 target cells, 48 h (FACS): 0.0774 nM
  EC50 of CD69 up-regulation on CD4 T cells (% CD4+CD69+), NCI-H596 target cells, 48 h (FACS): 0.0412 nM
  EC50 of CD69 up-regulation on CD8 T cells (% CD8+CD69+), AsPC-1 target cells, 48 h (FACS): 0.137 nM
  EC50 of CD69 up-regulation on CD8 T cells (% CD8+CD69+), BxPC-3 target cells, 48 h (FACS): 0.0977 nM
  EC50 of CD69 up-regulation on CD8 T cells (% CD8+CD69+), NCI-H596 target cells, 48 h (FACS): 0.0783 nM
Human mesothelin [9]
  EC50 of T-cell mediated lysis of AsPC-1 cells, 48 h (LDH release): 0.0762 nM
  EC50 of T-cell mediated lysis of BxPC-3 cells, 48 h (LDH release): 0.0881 nM
  EC50 of T-cell mediated lysis of NCI-H596 cells, 24 h (LDH release): 0.0251 nM
  EC50 of T-cell mediated lysis of NCI-H596 cells, 48 h (LDH release): 0.0971 nM

B2: MSLN TCB molecule C: '2+1 IgG CrossFab, inverted' without charge modifications (VH/VL exchange in CD3 binder) (bispecific antibody)
light: B1 light 1
chain 1: B1 heavy 1 with E149K, E215K
chain 2: not shown
chain 3: B1 light 2 with R122E, K123Q
Human mesothelin [7]
  EC50: 0.828 nM

B3: MSLN TCB molecule F: '1+1 IgG CrossMab' with charge modifications (bispecific antibody)
heavy 1: B1 heavy 1
heavy 2: not shown
light 1: B1 light 1
light 2: B1 light 2
Human CD3
  binding result: binds
Human mesothelin [4]
  EC50 of T-cell mediated lysis of AsPC-1 cells, 48 h (LDH release): 0.37 nM
  EC50 of T-cell mediated lysis of NCI-H596 cells, 48 h (LDH release): 0.319 nM
Human mesothelin [7]
  EC50: 4.59 nM
Human mesothelin [8]
  EC50 of CD69 up-regulation on CD4 T cells (% CD4+CD69+), AsPC-1 target cells, 48 h (FACS): 0.299 nM
  EC50 of CD69 up-regulation on CD4 T cells (% CD4+CD69+), BxPC-3 target cells, 48 h (FACS): ~0.0958 nM
  EC50 of CD69 up-regulation on CD4 T cells (% CD4+CD69+), NCI-H596 target cells, 48 h (FACS): 0.0454 nM
  EC50 of CD69 up-regulation on CD8 T cells (% CD8+CD69+), AsPC-1 target cells, 48 h (FACS): 0.118 nM
  EC50 of CD69 up-regulation on CD8 T cells (% CD8+CD69+), BxPC-3 target cells, 48 h (FACS): 0.479 nM
  EC50 of CD69 up-regulation on CD8 T cells (% CD8+CD69+), NCI-H596 target cells, 48 h (FACS): 0.0532 nM

B4: MSLN TCB molecule E: '1+1 IgG CrossFab, inverted' with charge modifications (bispecific antibody)
heavy: not shown
light 1: B1 light 1
light 2: B1 light 2
chain: DKTHTCPPCPAPEAAGGPSVFLFPPKPKDTLMISRTPEVTCVVVDVSHEDPEVKFNWYVDGVEVHNAKTKPREEQYNSTYRVVSVLTVLHQDWLNGKEYKCKVSNKALGAPIEKTISKAKGQPREPQVCTLPPSRDELTKNQVSLSCAVKGFYPSDIAVEWESNGQPENNYKTTPPVLDSDGSFFLVSKLTVDKSRWQQGNVFSCSVMHEALHNHYTQKSLSLSP
Human mesothelin [4]
  EC50 of T-cell mediated lysis of AsPC-1 cells, 48 h (LDH release): 0.145 nM
  EC50 of T-cell mediated lysis of BxPC-3 cells, 48 h (LDH release): 0.115 nM
  EC50 of T-cell mediated lysis of NCI-H596 cells, 48 h (LDH release): 0.182 nM
Human mesothelin [7]
  EC50: 1.79 nM
Human mesothelin [8]
  EC50 of CD69 up-regulation on CD4 T cells (% CD4+CD69+), AsPC-1 target cells, 48 h (FACS): 0.167 nM
  EC50 of CD69 up-regulation on CD4 T cells (% CD4+CD69+), BxPC-3 target cells, 48 h (FACS): ~0.0939 nM
  EC50 of CD69 up-regulation on CD4 T cells (% CD4+CD69+), NCI-H596 target cells, 48 h (FACS): 0.0388 nM
  EC50 of CD69 up-regulation on CD8 T cells (% CD8+CD69+), AsPC-1 target cells, 48 h (FACS): 0.146 nM
  EC50 of CD69 up-regulation on CD8 T cells (% CD8+CD69+), BxPC-3 target cells, 48 h (FACS): ~0.0952 nM
  EC50 of CD69 up-regulation on CD8 T cells (% CD8+CD69+), NCI-H596 target cells, 48 h (FACS): 0.0609 nM
